The results in this text go back to PMC10657408, “c-di-GMP inhibits the DNA binding activity of H-NS in Salmonella” (Nature Communications, 2023).

For data set [1], the target named is T1, H-NS (Salmonella enterica serovar Typhimurium (LT2 reference genome; SL1344 also used)) (UniProt P0A1S2).
T1 sequence: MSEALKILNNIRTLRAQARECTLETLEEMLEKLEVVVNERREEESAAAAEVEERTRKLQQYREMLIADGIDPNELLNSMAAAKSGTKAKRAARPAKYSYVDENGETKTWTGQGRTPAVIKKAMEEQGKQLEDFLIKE
Description: EMSA. To be noted: ITC: 25 mM Tris-HCl, 150 mM NaCl, pH 7.5, 20 C, 100 uM DNA into 10 uM protein; EMSA: 20 mM Tris-HCl, 4 mM MgCl2, 100 mM NaCl, 1 mM DTT, 1% NP-40, 10% glycerol ….

Data set [2] deals with H-NS (Salmonella enterica serovar Typhimurium (LT2 reference genome; SL1344 also used)). Description: ITC. To be noted: ITC: 25 mM Tris-HCl, 150 mM NaCl, pH 7.5, 20 C, 100 uM DNA into 10 uM protein; EMSA: 20 mM Tris-HCl, 4 mM MgCl2, 100 mM NaCl, 1 mM DTT, 1% NP-40, 10% glycerol ….
For data set [3], the system named is H-NS K107A (Salmonella enterica serovar Typhimurium (LT2 reference genome; SL1344 also used)). Nature of the data set: ITC. Conditions: ITC: 25 mM Tris-HCl, 150 mM NaCl, pH 7.5, 20 C, 100 uM DNA into 10 uM protein; EMSA: 20 mM Tris-HCl, 4 mM MgCl2, 100 mM NaCl, 1 mM DTT, 1% NP-40, 10% glycerol ….
The target in data set [4] is T2, StpA (Salmonella enterica, UniProt P0A1S4, F98Y).
T2 sequence (P0A1S4 1-133 F98Y): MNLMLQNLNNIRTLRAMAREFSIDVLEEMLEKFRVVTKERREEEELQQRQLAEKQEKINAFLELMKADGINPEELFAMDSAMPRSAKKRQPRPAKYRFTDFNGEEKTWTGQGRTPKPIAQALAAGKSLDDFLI
Description: Kd measurement (ITC, Supplementary Fig. […]b). Type of data set: binding.

For data set [5], the target named is StpA (Salmonella enterica, UniProt P0A1S4). Description: Kd measurement (ITC, Supplementary Fig. […]b). Type of data set: binding.
For the next data set, the target named is T3, H-NS (Salmonella enterica, UniProt A0A0H3NBY9).
T3 construct: gene hns; full-length, tag-free
Description: ITC ([…] stoichiometry); also UV-crosslinking competition and EMSA inhibition of DNA binding.

For data set [6], the target named is T4, H-NS K107A K107A (Salmonella enterica serovar Typhimurium (LT2 reference genome; SL1344 also used)) (UniProt P0A1S2).
T4 sequence: T1 sequence with K107A
Nature of the data set: EMSA. Conditions: ITC: 25 mM Tris-HCl, 150 mM NaCl, pH 7.5, 20 C, 100 uM DNA into 10 uM protein; EMSA: 20 mM Tris-HCl, 4 mM MgCl2, 100 mM NaCl, 1 mM DTT, 1% NP-40, 10% glycerol ….

Data set [7] concerns the target T1, H-NS (Salmonella enterica serovar Typhimurium (LT2 reference genome; SL1344 also used)). Description: ITC. Conditions: ITC: 25 mM Tris-HCl, 150 mM NaCl, pH 7.5, 20 C, 100 uM DNA into 10 uM protein; EMSA: 20 mM Tris-HCl, 4 mM MgCl2, 100 mM NaCl, 1 mM DTT, 1% NP-40, 10% glycerol ….
Data set [8] deals with T4, H-NS K107A K107A (Salmonella enterica serovar Typhimurium (LT2 reference genome; SL1344 also used)). Nature of the data set: ITC. Conditions: ITC: 25 mM Tris-HCl, 150 mM NaCl, pH 7.5, 20 C, 100 uM DNA into 10 uM protein; EMSA: 20 mM Tris-HCl, 4 mM MgCl2, 100 mM NaCl, 1 mM DTT, 1% NP-40, 10% glycerol ….
In data set [9] the target is T5, H-NS T115A T115A (Salmonella enterica serovar Typhimurium (LT2 reference genome; SL1344 also used)) (UniProt P0A1S2).
T5 sequence: T1 sequence with T115A
Nature of the data set: ITC. To be noted: ITC: 25 mM Tris-HCl, 150 mM NaCl, pH 7.5, 20 C, 100 uM DNA into 10 uM protein; EMSA: 20 mM Tris-HCl, 4 mM MgCl2, 100 mM NaCl, 1 mM DTT, 1% NP-40, 10% glycerol ….

Where a chain is given by its changes, count along the chain named.

With “TAATCGATGGTGTTATCATTAGGAAGATAAATTTCTTCATATATAACCCAGTCGATGACTACAATTACTTTTTAATAAGATGGCGATGTAAAAACATCGTAACAGTTTATTTAATAAATAATTTTTCAAATTGTAAGTTTTTATGTCAATGCTGAAAATGTAATTGTGAATTTATCGGAAAATCCGAATGATAGAATCGCCTGTGACAAGGTATATGTAGACAGCATCCTGATATTGTA (double strand) [PssrAB]”, the binding result in data set [1] is recorded as “binds”.

Consider PfimA, for which the dissociation constant Kd is 360 nM in data set [2] and 430 nM in data set [3].

As to PvgrG, the Kd in data set [2] turned out to be 460 nM; in data set [3], 380 nM.

Turning to `Nc1nc2c(ncn2[C@@H]2O[C@@H]3CO[P@](=O)(O)O[C@H]4[C@@H](O)[C@H](n5cnc6c(=O)[nH]c(N)nc65)O[C@@H]4CO[P@](=O)(O)O[C@H]3[C@H]2O)c(=O)[nH]1` [c-di-GMP], the results for the Kd at StpA [4], on StpA [5] and on H-NS were 640 ± 90 nM, 73000 ± 14000 nM and 270 ± 40 nM, respectively.

In the case of “ATGTTTCATGGATTTCCCTTGAATTACACACACCCGGTTTCGGCATCCTGTCGGCTCCGTTTGAATTATTATCGACATAGCATGTCAGAAAAGTTATCTCTGCATCCTGTAAAGATAGATATCGCAGATTAATTAGTTTTCTGTTTCTCCCCTGAGTATCAGACGCAGTAATTAATCTTTGCGAATATGACATTTCGTCACGGTAATAAATTAAACATTTCGCTAAATAAAAAATAGCCG (double strand) [PfimA]”, the binding result in [1] and in data set [6] was “binds” in each case. Further, the figures for the Kd in data set [7] and in [8] were 360 nM and 430 nM, respectively.

PyaiU: the Kd in data set [2] was 290 nM.

In the case of PclpV, the figures for the Kd in data set [2] and in data set [3] were 310 nM and 320 nM, respectively.

On to “CAAAACTCATGGTAGTGACTCCTTTAATACCGGATTAAAATAAATAGACTCACCGTCAGGAAACAGTGCCCCGCACTTTATAATGCAACCAGCCTGTTATATTTAAATATTTACCAGAAGAACAGGGTATATTGCTGACAAGAGCCATGAAAATAAAAACACAAAAATTAGCACATAACATAAATACTGAATTACATAAATAAGGAAATGAACATAACAATA (double strand) [PvgrG]”, for which the results for the binding entry in data set [1], in data set [6] and in data set [9] were “binds”, “binds” and “binds more weakly”, respectively. The Kd in [7] amounted to 460 nM; in [8], 380 nM.

Regarding “TTCCATGTGTTATGCCTTGTGACATAAAAATTCATAAAAATAATGCATCAATGCATATAAATATATAAACAATTCTTTATTGATAGCCTCGAAAAAATATCGAAACAAAACAATGATACAGATCAGGGACTAATTAGCAACTAAGCCGTTAATATTAAATAATCAATGAACAGCAAGATAAAAA (double strand) [PclpV]”, the values for the binding entry in [1], in data set [6] and in data set [9] were “binds”, “binds” and “binds more weakly”, respectively. Further, the Kd in data set [7] stood at 310 nM; in data set [8] it was 320 nM.
